Assay results from patent US20070161569A1 (GENERAL HOSPITAL, published 2007).
Several values for one entry are separate records, joined by “and”; a condition that tells them apart may be missing. Equal values may be shown once. Non-standard residues stand in square brackets, D forms with d. No end group written: not given here. hArg = N=C(N)NCCCC[C@H](N)C(=O)O; Ac5c = NC1(C(=O)O)CCCC1; Deg = CCC(N)(CC)C(=O)O; Ac3c = NC1(C(=O)O)CC1; Aib = CC(C)(N)C(=O)O

Assays:
[1] = molecular target: T1, recombinant P1R chimera expressed in HKRK-B28 cells (opossum P1R from the N-terminus to the mid region of … (opossum; rat, UniProt P25107 27-288; P25961 295-591, limits assumed); assay: cell-based or functional assay
T1 sequence (P25107 other isoform, or with tags, fused parts or gaps limits assumed): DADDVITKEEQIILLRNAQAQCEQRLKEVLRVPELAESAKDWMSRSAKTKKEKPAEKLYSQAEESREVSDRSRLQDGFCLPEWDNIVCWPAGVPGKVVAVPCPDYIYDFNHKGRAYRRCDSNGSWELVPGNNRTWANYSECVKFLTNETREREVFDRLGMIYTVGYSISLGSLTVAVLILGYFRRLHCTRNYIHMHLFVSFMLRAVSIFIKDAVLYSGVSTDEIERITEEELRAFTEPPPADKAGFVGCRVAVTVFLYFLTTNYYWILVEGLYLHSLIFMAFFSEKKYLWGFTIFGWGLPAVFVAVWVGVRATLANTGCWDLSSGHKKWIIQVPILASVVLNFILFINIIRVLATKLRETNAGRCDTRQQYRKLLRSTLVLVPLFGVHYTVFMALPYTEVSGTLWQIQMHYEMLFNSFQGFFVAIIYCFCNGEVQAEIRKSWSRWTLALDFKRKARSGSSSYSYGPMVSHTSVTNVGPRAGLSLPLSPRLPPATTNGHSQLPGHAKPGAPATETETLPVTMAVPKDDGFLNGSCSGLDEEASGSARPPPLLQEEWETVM

[2] = molecular target: T1, recombinant P1R chimera expressed in …; assay: competition binding on B28 cells against 125I-PTH(1-21) tracer (SEQ ID NO 36)
Experimental: Competition Binding. Binding reactions were performed with HKRK-B28 cells or in COS-7 cells in 24-well plates. The cells were rinsed with 0.5 mL of binding buffer, and then treated successively with 100 μL binding buffer, 100 μL of binding buffer containing various amounts of unlabeled competitor ligand, and 100 μL of binding buffer containing ca. 100,000 cpm of ¹²⁵I-[Aib^{1,3},Nle⁸,Gln¹⁰,Har¹¹,Ala¹²,Trp¹⁴,Arg¹⁹,Tyr²¹]rPTH(1-21) (SEQ. ID. NO. 36) (ca. 26 fmol; final volume=300 μL). Incubations were 4 to 6 h at 4° C., at which time near equilibrium conditions were attained. Cells were then placed on ice, the binding medium was removed, and the monolayer was rinsed three times with 0.5 mL of cold binding buffer. The cells were subsequently lysed with 0.5 mL 5N NaOH and counted for radioactivity. For each tracer and in each experiment, the non-specific binding was determined as the radioactivity that bound in the presence of the same unlabeled peptide at a concentration of 1 μM, and was ˜1% of total radioactivity added for each tracer. The maximum specific binding (B₀) was the total radioactivity bound in the absence of competing ligand, corrected for nonspecific binding, and for each tracer, ranged from 8% to 20% of the total radioactivity added. Nonlinear regression was used to calculate binding IC₅₀ values (see below). Scatchard transformations of homologous competition binding data derived from studies with 26 fmol of ¹²⁵I-[Aib^{1,3},Nle⁸,Gln¹⁰,Har¹¹,Ala¹²,Trp¹⁴, Arg¹⁹,Tyr²¹]rPTH(1-21) (SEQ. ID. NO. 36) were employed for estimations of apparent equilibrium dissociation constant (kDapps) and total number of ligand binding sites (Bₘₐₓ), assuming a single class of binding sites and equal affinities of the iodinated and non iodinated ligand.

[3] = molecular target: T2, P1R-delNt, a recombinant human PTH-1 receptor construct in which most of the amino-terminal extracellular … (human, UniProt Q03431 23-593, limits assumed); assay: cell-based or functional assay
T2 sequence (looked up): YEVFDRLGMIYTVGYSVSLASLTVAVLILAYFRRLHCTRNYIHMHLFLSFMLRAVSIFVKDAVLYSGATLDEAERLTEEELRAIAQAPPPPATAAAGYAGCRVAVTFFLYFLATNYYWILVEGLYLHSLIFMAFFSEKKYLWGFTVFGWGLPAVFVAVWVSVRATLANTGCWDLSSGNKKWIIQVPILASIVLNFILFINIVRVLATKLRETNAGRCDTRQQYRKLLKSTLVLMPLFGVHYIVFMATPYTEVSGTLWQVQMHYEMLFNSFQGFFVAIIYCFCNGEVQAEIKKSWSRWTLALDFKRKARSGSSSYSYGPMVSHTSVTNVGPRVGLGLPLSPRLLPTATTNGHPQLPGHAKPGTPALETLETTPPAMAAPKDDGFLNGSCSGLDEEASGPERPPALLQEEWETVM

B1: [Ac5c^1,Aib^3]PTH(1-9)NH2 (peptide)
peptide: [Ac5c]V[Aib]EIQLMH-NH2
modifications: N-terminus assumed
SMILES: CC[C@H](C)[C@H](NC(=O)[C@H](CCC(=O)O)NC(=O)C(C)(C)NC(=O)[C@@H](NC(=O)C1(N)CCCC1)C(C)C)C(=O)N[C@@H](CCC(N)=O)C(=O)N[C@@H](CC(C)C)C(=O)N[C@@H](CCSC)C(=O)N[C@@H](Cc1c[nH]cn1)C(N)=O
For B1, the “increase in cAMP levels relative to basal, peptide at 1×10^-4M” value [1] was 6 fold.

B2: [Aib^1,3,Gln^10]PTH(1-10)NH2 (peptide)
peptide: [Aib]V[Aib]EIQLMHQ-NH2
modifications: N-terminus assumed
SMILES: CC[C@H](C)[C@H](NC(=O)[C@H](CCC(=O)O)NC(=O)C(C)(C)NC(=O)[C@@H](NC(=O)C(C)(C)N)C(C)C)C(=O)N[C@@H](CCC(N)=O)C(=O)N[C@@H](CC(C)C)C(=O)N[C@@H](CCSC)C(=O)N[C@@H](Cc1c[nH]cn1)C(=O)N[C@@H](CCC(N)=O)C(N)=O
In the case of B2, the “increase in cAMP accumulation, peptide at 1×10^-4M” value [1] is reported as 2 fold.

B3: [Ac3c^1,M]PTH(1-14) (peptide)
peptide: [Ac3c]VAEIQLMHQ[hArg]AKW-NH2
modifications: N-terminus assumed
SMILES: CC[C@H](C)[C@H](NC(=O)[C@H](CCC(=O)O)NC(=O)[C@H](C)NC(=O)[C@@H](NC(=O)C1(N)CC1)C(C)C)C(=O)N[C@@H](CCC(N)=O)C(=O)N[C@@H](CC(C)C)C(=O)N[C@@H](CCSC)C(=O)N[C@@H](Cc1c[nH]cn1)C(=O)N[C@@H](CCC(N)=O)C(=O)N[C@@H](CCCCNC(=N)N)C(=O)N[C@@H](C)C(=O)N[C@@H](CCCCN)C(=O)N[C@@H](Cc1c[nH]c2ccccc12)C(N)=O
For B3, the “cAMP accumulation, fold more potent than the parent analog” value [1] was about 2 fold.

B4: [M]PTH(1-14) analog in which alanine-3 is substituted with 1-aminocyclopentane-1-carboxylic acid (Ac5c) (peptide)
peptide: AV[Ac5c]EIQLMHQ[hArg]AKW-NH2
modifications: N-terminus assumed
SMILES: CC[C@H](C)[C@H](NC(=O)[C@H](CCC(=O)O)NC(=O)C1(NC(=O)[C@@H](NC(=O)[C@H](C)N)C(C)C)CCCC1)C(=O)N[C@@H](CCC(N)=O)C(=O)N[C@@H](CC(C)C)C(=O)N[C@@H](CCSC)C(=O)N[C@@H](Cc1c[nH]cn1)C(=O)N[C@@H](CCC(N)=O)C(=O)N[C@@H](CCCCNC(=N)N)C(=O)N[C@@H](C)C(=O)N[C@@H](CCCCN)C(=O)N[C@@H](Cc1c[nH]c2ccccc12)C(N)=O
notes: also called Ac5c^3-containing analog; Ac5c-3
B4 was tested, and the “cAMP-stimulating potency, fold increase over the parent analog” value [1] was under 2 fold and the IC50 [2] was about 3000 nM.

B5: [Ac5c^1,M]PTH(1-14) (peptide)
peptide: [Ac5c]VAEIQLMHQ[hArg]AKW-NH2
modifications: N-terminus assumed
SMILES: CC[C@H](C)[C@H](NC(=O)[C@H](CCC(=O)O)NC(=O)[C@H](C)NC(=O)[C@@H](NC(=O)C1(N)CCCC1)C(C)C)C(=O)N[C@@H](CCC(N)=O)C(=O)N[C@@H](CC(C)C)C(=O)N[C@@H](CCSC)C(=O)N[C@@H](Cc1c[nH]cn1)C(=O)N[C@@H](CCC(N)=O)C(=O)N[C@@H](CCCCNC(=N)N)C(=O)N[C@@H](C)C(=O)N[C@@H](CCCCN)C(=O)N[C@@H](Cc1c[nH]c2ccccc12)C(N)=O
notes: also called Ac5c (position 1) analog; Ac5c^1 modification
In the case of B5, the “cAMP accumulation, fold more potent than the parent analog” value [1] is reported as 61 fold, the “cAMP potency, fold improvement relative to parent [M]PTH(1-14)” value [1] is reported as about 35 fold and the “fold improved affinity relative to the parent [M]PTH(1-14)” value [2] is reported as 50 fold.

B6: [Aib^1,3,Gln^10,Har^11,Ala^12,Trp^14]PTH(1-14)NH2 (peptide)
peptide: [Aib]V[Aib]EIQLMHQ[hArg]AKW-NH2
modifications: N-terminus assumed
SMILES: CC[C@H](C)[C@H](NC(=O)[C@H](CCC(=O)O)NC(=O)C(C)(C)NC(=O)[C@@H](NC(=O)C(C)(C)N)C(C)C)C(=O)N[C@@H](CCC(N)=O)C(=O)N[C@@H](CC(C)C)C(=O)N[C@@H](CCSC)C(=O)N[C@@H](Cc1c[nH]cn1)C(=O)N[C@@H](CCC(N)=O)C(=O)N[C@@H](CCCCNC(=N)N)C(=O)N[C@@H](C)C(=O)N[C@@H](CCCCN)C(=O)N[C@@H](Cc1c[nH]c2ccccc12)C(N)=O
For B6, the “cAMP EC50 in LdelNt-2 cells” value [3] was 6.4 nM.

B7: [Ac5c^1,Aib^3,Gln^10]PTH(1-10)NH2 (peptide)
peptide: [Ac5c]V[Aib]EIQLMHQ-NH2
modifications: N-terminus assumed
SMILES: CC[C@H](C)[C@H](NC(=O)[C@H](CCC(=O)O)NC(=O)C(C)(C)NC(=O)[C@@H](NC(=O)C1(N)CCCC1)C(C)C)C(=O)N[C@@H](CCC(N)=O)C(=O)N[C@@H](CC(C)C)C(=O)N[C@@H](CCSC)C(=O)N[C@@H](Cc1c[nH]cn1)C(=O)N[C@@H](CCC(N)=O)C(N)=O
In the case of B7, the “cAMP EC50 in HKRK-B28 cells” value [1] is reported as about 3000 nM, the “increase in cAMP levels relative to basal, peptide at 10 µM, HKRK-B28 cells” value [1] is reported as 33 fold and the “cAMP EC50 in LdelNt-2 cells” value [3] is reported as ~40000 nM and 37000 nM.

B8: [M]PTH(1-14) analog in which alanine-3 is substituted with α,α-diethylglycine (Deg) (peptide)
peptide: H-AV[Deg]EIQLMHQ[hArg]AKW-NH2
SMILES: CC[C@H](C)[C@H](NC(=O)[C@H](CCC(=O)O)NC(=O)C(CC)(CC)NC(=O)[C@@H](NC(=O)[C@H](C)N)C(C)C)C(=O)N[C@@H](CCC(N)=O)C(=O)N[C@@H](CC(C)C)C(=O)N[C@@H](CCSC)C(=O)N[C@@H](Cc1c[nH]cn1)C(=O)N[C@@H](CCC(N)=O)C(=O)N[C@@H](CCCCNC(=N)N)C(=O)N[C@@H](C)C(=O)N[C@@H](CCCCN)C(=O)N[C@@H](Cc1c[nH]c2ccccc12)C(N)=O
notes: also called Deg^3-containing analog; Deg-3
In the case of B8, the “cAMP-stimulating potency, fold diminished against the parent analog” value [1] is reported as about 10 fold, the “signaling potency, fold diminished relative to parent [M]PTH(1-14)” value [1] is reported as about 40 fold and the IC50 [2] is reported as about 3000 nM. The “fold improved affinity relative to the parent [M]PTH(1-14)” value [2] was about 1.5 fold.

B9: [Deg^1,M]PTH(1-14) (peptide)
peptide: [Deg]VAEIQLMHQ[hArg]AKW-NH2
modifications: N-terminus assumed
SMILES: CC[C@H](C)[C@H](NC(=O)[C@H](CCC(=O)O)NC(=O)[C@H](C)NC(=O)[C@@H](NC(=O)C(N)(CC)CC)C(C)C)C(=O)N[C@@H](CCC(N)=O)C(=O)N[C@@H](CC(C)C)C(=O)N[C@@H](CCSC)C(=O)N[C@@H](Cc1c[nH]cn1)C(=O)N[C@@H](CCC(N)=O)C(=O)N[C@@H](CCCCNC(=N)N)C(=O)N[C@@H](C)C(=O)N[C@@H](CCCCN)C(=O)N[C@@H](Cc1c[nH]c2ccccc12)C(N)=O
In the case of B9, the “cAMP accumulation, fold more potent than the parent analog” value [1] is reported as 11 fold.
